Values joined by “and” are separate entries in the source; they are usually repeats but may differ in a detail not shown here. Equal values may be shown once.
Biological target: SARS-CoV-2 prototype receptor binding domain (residues 319-541) (SARS-CoV-2, UniProt P0DTC2 319-541)
Experiment: SPR

B1: equine angiotensin converting enzyme 2 (residues 19-615) (receptor)
chain: STTEDLAKTFLEKFNSEAEELSHQSSLASWSYNTNITDENVQKMNEAGARWSAFYEEQCKLAKTYPLEEIQNLTVKRQLQALQQSGSSVLSADKSKRLNEILNTMSTIYSTGKVCNPSNPQECLLLEPGLDAIMENSKDYNQRLWAWEGWRSEVGKQLRPLYEEYVVLKNEMARANNYEDYGDYWRGDYEAEGPSGYDYSRDQLIEDVERTFAEIKPLYEHLHAYVRAKLMDTYPSHINPTGCLPAHLLGDMWGRFWTNLYSLTVPFGQKPNIDVTDAMVDQSWDAKRIFEEAEKFFVSVGLPNMTQGFWENSMLTEPGDGRKVVCHPTAWDLGKGDFRIKMCTKVTMDDFLTAHHEMGHIQYDMAYAVQPYLLRNGANEGFHEAVGEIMSLSAATPNHLKAIGLLPPDFYEDSETEINFLLKQALTIVGTLPFTYMLEKWRWMVFKGEIPKEEWMKKWWEMKREIVGVVEPVPHDETYCDPAALFHVANDYSFIRYYTRTIYQFQFQEALCQTAKHEGPLHKCDISNSTEAGQKLLQMLSLGKSEPWTLALERIVGVKNMDVRPLLNYFEPLFTWLKDQNKNSFVGWSTNWSPYAD
Kd: 87.7 nM and 200 nM

— PMC9210341 (2022)
